{"source": "paper PMC3855486", "about": "“New Insights into the Phylogeny and Molecular Classification of Nicotinamide Mononucleotide Deamidases” (PLoS ONE, 2013)", "substrate": "NC(=O)c1ccc[n+]([C@@H]2O[C@H](COP(=O)(O)O)[C@@H](O)[C@H]2O)c1", "assay": "HPLC, decrease of NMN peak area", "type": "biochemical, Oceanobacillus iheyensis", "conditions": "50 mM phosphate buffer pH 7.5, 37 °C, Michaelian, NMN 0.01-1 mM", "data": [{"protein": "OiPncC (Oceanobacillus iheyensis HTE831) (protein, full length, 417 residues (gene misprinted as 417 bp), MocF-CinA two-domain; C-terminal His6 (pET24b), E. coli Rosetta2(DE3)) MKNYQAEIVAVGTELLLGQIANTNAQWLSEKLATYGINMYNHTVVGDNLERVEQAFQLAQSRSNIIIVTGGLGPTADDLTREGFQQMTGLPLVEDKESMEKIEGFFQNRGRTMTPNNRKQARVFEGSTVLNNKAGMAPGMYVHYQSCHWFFLPGVPREMKHISQEELFPFLEKVTGKQRIIQSVVLKFIGIGESTLEHTLSDLIEKQTNPTIAPLAQDQAVVIRLTARGETKQEAEAMLEQTKKLILARVGEHYFGENEESIEDIVVQQLQDLGYSISAAESITGGMFSQRLVSVTGASNVFAGSFITYQSRIKEEVLEVPSEIIHSQGVVSRACSDAMASNVTRKIQTNLGISFTGIAGPDEQEGKPVGTVYISIADGDEVVVSKQFNFTGNRNHIRDRACLKGFELIYQYLKSKS", "values": [{"measurement": "Km", "result": "180 ± 20", "unit": "µM"}, {"measurement": "kcat", "result": "0.38 ± 0.01", "unit": "s⁻¹"}]}]}
